# Data taken from patent publication US20250327097A1, “ORGANISMS PRODUCING LESS CROTONIC ACID” (Global Bioenergies, priority 2021, published 2025).
# B1: I283T-N285P-N287T-Q290E-S322T-N388M-K394R-C430A-L432F-L434W-S436N-i444aL-dG462 (protein)
# chain: MFLKSLREQINLLKRQGDLRIINRPVDSYLEAAAIIRRSTETKAPVPLMTNIKGYPGCSIVGGLAALSSNPEYPLSRVAMSLGLSTTASAQSIVQYLIDGLKKTPYLPVEIDSNSAPCKQNILRGEDASLAHFPIPQVHQHDGNRYVNTWGVFIVESPDGQWCNWSIQRVQYLNDRQMIALVFPSQHISDIWEEWVKIGKPMPYALVQGCEPIVPYIAGLPLLERNVNEAEYIGALYGKGIEVVKCETHDLRVPASSEVVIEGYFAITREGVEGPFGEFAGYTPPETSLEPILSITAISWQDDPIWPVVAEGKPVDEYHTCTGIGDAAAIQNVLLTANLPVSFVWVPLYSACHLMIVSINRHWRQTHPDLTSEQLTKKVGDVIHQTRMSIKLPRIVVLDDDVDPADTESLLWALATRIHPERKRYFYESAIFPWLNCYSEEERHNRKGKRVIIDALLPENHGAISSFDYAYPDDIKQRVLMHWETDFSHD
# B2: I283T-N285P-N287T-Q290E-S322T-N388M-K394R-C430A-L432F-L434W-S436N-i444aE-dG462 (protein)
# chain: MFLKSLREQINLLKRQGDLRIINRPVDSYLEAAAIIRRSTETKAPVPLMTNIKGYPGCSIVGGLAALSSNPEYPLSRVAMSLGLSTTASAQSIVQYLIDGLKKTPYLPVEIDSNSAPCKQNILRGEDASLAHFPIPQVHQHDGNRYVNTWGVFIVESPDGQWCNWSIQRVQYLNDRQMIALVFPSQHISDIWEEWVKIGKPMPYALVQGCEPIVPYIAGLPLLERNVNEAEYIGALYGKGIEVVKCETHDLRVPASSEVVIEGYFAITREGVEGPFGEFAGYTPPETSLEPILSITAISWQDDPIWPVVAEGKPVDEYHTCTGIGDAAAIQNVLLTANLPVSFVWVPLYSACHLMIVSINRHWRQTHPDLTSEQLTKKVGDVIHQTRMSIKLPRIVVLDDDVDPADTESLLWALATRIHPERKRYFYESAIFPWLNCYSEEERHNRKGKRVIIDALLPENHGAISSFDYAYPDDIKQRVLMHWETDFSHD
# B3: I283T-N285P-N287T-Q290E-S322T-N388M-K394R-C430A-L432F-L434W-S436N-i444aK-dG462 (protein)
# chain: MFLKSLREQINLLKRQGDLRIINRPVDSYLEAAAIIRRSTETKAPVPLMTNIKGYPGCSIVGGLAALSSNPEYPLSRVAMSLGLSTTASAQSIVQYLIDGLKKTPYLPVEIDSNSAPCKQNILRGEDASLAHFPIPQVHQHDGNRYVNTWGVFIVESPDGQWCNWSIQRVQYLNDRQMIALVFPSQHISDIWEEWVKIGKPMPYALVQGCEPIVPYIAGLPLLERNVNEAEYIGALYGKGIEVVKCETHDLRVPASSEVVIEGYFAITREGVEGPFGEFAGYTPPETSLEPILSITAISWQDDPIWPVVAEGKPVDEYHTCTGIGDAAAIQNVLLTANLPVSFVWVPLYSACHLMIVSINRHWRQTHPDLTSEQLTKKVGDVIHQTRMSIKLPRIVVLDDDVDPADTESLLWALATRIHPERKRYFYESAIFPWLNCYSEEERHNRKGKRVIIDALLPENHGAISSFDYAYPDDIKQRVLMHWETDFSHD
# B4: I283T-N285P-N287T-Q290E-S322T-N388M-K394R-C430A-L432F-L434W-S436N-i444aS-dG462 (protein)
# chain: MFLKSLREQINLLKRQGDLRIINRPVDSYLEAAAIIRRSTETKAPVPLMTNIKGYPGCSIVGGLAALSSNPEYPLSRVAMSLGLSTTASAQSIVQYLIDGLKKTPYLPVEIDSNSAPCKQNILRGEDASLAHFPIPQVHQHDGNRYVNTWGVFIVESPDGQWCNWSIQRVQYLNDRQMIALVFPSQHISDIWEEWVKIGKPMPYALVQGCEPIVPYIAGLPLLERNVNEAEYIGALYGKGIEVVKCETHDLRVPASSEVVIEGYFAITREGVEGPFGEFAGYTPPETSLEPILSITAISWQDDPIWPVVAEGKPVDEYHTCTGIGDAAAIQNVLLTANLPVSFVWVPLYSACHLMIVSINRHWRQTHPDLTSEQLTKKVGDVIHQTRMSIKLPRIVVLDDDVDPADTESLLWALATRIHPERKRYFYESAIFPWLNCYSEEERHNRKGKRVIIDALLPENHGAISSFDYAYPDDIKQRVLMHWETDFSHD
# B5: V382L-N388M-K394R-C430N-L432F-L434W-S436N (protein)
# chain: MFLKSLREQINLLKRQGDLRIINRPVDSYLEAAAIIRRSTETKAPVPLMTNIKGYPGCSIVGGLAALSSNPEYPLSRVAMSLGLSTTASAQSIVQYLIDGLKKTPYLPVEIDSNSAPCKQNILRGEDASLAHFPIPQVHQHDGNRYVNTWGVFIVESPDGQWCNWSIQRVQYLNDRQMIALVFPSQHISDIWEEWVKIGKPMPYALVQGCEPIVPYIAGLPLLERNVNEAEYIGALYGKGIEVVKCETHDLRVPASSEVVIEGYFAITREGVEGPFGEFAGYIPNENSLQPILSITAISWQDDPIWPVVAEGKPVDEYHTCSGIGDAAAIQNVLLTANLPVSFVWVPLYSACHLMIVSINRHWRQTHPDLTSEQLTKKVGDLIHQTRMSIKLPRIVVLDDDVDPADTESLLWALATRIHPERKRYFYESNIFPWLNCYSEEERHNRKGKRVIIDALLPENHGAISSFDYAYPDDIKQRVLMHWETDFSHD
# B6: I283T-N285P-N287T-Q290E-S322T-N388M-K394R-C430A-L432F-L434W-S436N-i445aQ-dG462 (protein)
# chain: MFLKSLREQINLLKRQGDLRIINRPVDSYLEAAAIIRRSTETKAPVPLMTNIKGYPGCSIVGGLAALSSNPEYPLSRVAMSLGLSTTASAQSIVQYLIDGLKKTPYLPVEIDSNSAPCKQNILRGEDASLAHFPIPQVHQHDGNRYVNTWGVFIVESPDGQWCNWSIQRVQYLNDRQMIALVFPSQHISDIWEEWVKIGKPMPYALVQGCEPIVPYIAGLPLLERNVNEAEYIGALYGKGIEVVKCETHDLRVPASSEVVIEGYFAITREGVEGPFGEFAGYTPPETSLEPILSITAISWQDDPIWPVVAEGKPVDEYHTCTGIGDAAAIQNVLLTANLPVSFVWVPLYSACHLMIVSINRHWRQTHPDLTSEQLTKKVGDVIHQTRMSIKLPRIVVLDDDVDPADTESLLWALATRIHPERKRYFYESAIFPWLNCYSEEERHNRKGKRVIIDALLPENHGAISSFDYAYPDDIKQRVLMHWETDFSHD
# B7: I283T-N285P-N287T-Q290E-S322T-N388M-K394R-C430A-L432F-L434W-S436N-i447aY-dG462 (protein)
# chain: MFLKSLREQINLLKRQGDLRIINRPVDSYLEAAAIIRRSTETKAPVPLMTNIKGYPGCSIVGGLAALSSNPEYPLSRVAMSLGLSTTASAQSIVQYLIDGLKKTPYLPVEIDSNSAPCKQNILRGEDASLAHFPIPQVHQHDGNRYVNTWGVFIVESPDGQWCNWSIQRVQYLNDRQMIALVFPSQHISDIWEEWVKIGKPMPYALVQGCEPIVPYIAGLPLLERNVNEAEYIGALYGKGIEVVKCETHDLRVPASSEVVIEGYFAITREGVEGPFGEFAGYTPPETSLEPILSITAISWQDDPIWPVVAEGKPVDEYHTCTGIGDAAAIQNVLLTANLPVSFVWVPLYSACHLMIVSINRHWRQTHPDLTSEQLTKKVGDVIHQTRMSIKLPRIVVLDDDVDPADTESLLWALATRIHPERKRYFYESAIFPWLNCYSEEERHNRKGKRVIIDALLPENHGAISSFDYAYPDDIKQRVLMHWETDFSHD
# B8: I283T-N285P-N287T-Q290E-S322T-N388M-K394R-C430A-L432F-L434W-S436N-i447aL-dG462 (protein)
# chain: MFLKSLREQINLLKRQGDLRIINRPVDSYLEAAAIIRRSTETKAPVPLMTNIKGYPGCSIVGGLAALSSNPEYPLSRVAMSLGLSTTASAQSIVQYLIDGLKKTPYLPVEIDSNSAPCKQNILRGEDASLAHFPIPQVHQHDGNRYVNTWGVFIVESPDGQWCNWSIQRVQYLNDRQMIALVFPSQHISDIWEEWVKIGKPMPYALVQGCEPIVPYIAGLPLLERNVNEAEYIGALYGKGIEVVKCETHDLRVPASSEVVIEGYFAITREGVEGPFGEFAGYTPPETSLEPILSITAISWQDDPIWPVVAEGKPVDEYHTCTGIGDAAAIQNVLLTANLPVSFVWVPLYSACHLMIVSINRHWRQTHPDLTSEQLTKKVGDVIHQTRMSIKLPRIVVLDDDVDPADTESLLWALATRIHPERKRYFYESAIFPWLNCYSEEERHNRKGKRVIIDALLPENHGAISSFDYAYPDDIKQRVLMHWETDFSHD
# B9: I283T-N285P-N287T-Q290E-S322T-N388M-K394R-C430A-L432F-L434W-S436N-i447aK-dG462 (protein)
# chain: MFLKSLREQINLLKRQGDLRIINRPVDSYLEAAAIIRRSTETKAPVPLMTNIKGYPGCSIVGGLAALSSNPEYPLSRVAMSLGLSTTASAQSIVQYLIDGLKKTPYLPVEIDSNSAPCKQNILRGEDASLAHFPIPQVHQHDGNRYVNTWGVFIVESPDGQWCNWSIQRVQYLNDRQMIALVFPSQHISDIWEEWVKIGKPMPYALVQGCEPIVPYIAGLPLLERNVNEAEYIGALYGKGIEVVKCETHDLRVPASSEVVIEGYFAITREGVEGPFGEFAGYTPPETSLEPILSITAISWQDDPIWPVVAEGKPVDEYHTCTGIGDAAAIQNVLLTANLPVSFVWVPLYSACHLMIVSINRHWRQTHPDLTSEQLTKKVGDVIHQTRMSIKLPRIVVLDDDVDPADTESLLWALATRIHPERKRYFYESAIFPWLNCYSEEERHNRKGKRVIIDALLPENHGAISSFDYAYPDDIKQRVLMHWETDFSHD
# B10: I283T-N285P-N287T-Q290E-S322T-N388M-K394R-C430A-L432F-L434W-S436N-i447aP-dG462 (protein)
# chain: MFLKSLREQINLLKRQGDLRIINRPVDSYLEAAAIIRRSTETKAPVPLMTNIKGYPGCSIVGGLAALSSNPEYPLSRVAMSLGLSTTASAQSIVQYLIDGLKKTPYLPVEIDSNSAPCKQNILRGEDASLAHFPIPQVHQHDGNRYVNTWGVFIVESPDGQWCNWSIQRVQYLNDRQMIALVFPSQHISDIWEEWVKIGKPMPYALVQGCEPIVPYIAGLPLLERNVNEAEYIGALYGKGIEVVKCETHDLRVPASSEVVIEGYFAITREGVEGPFGEFAGYTPPETSLEPILSITAISWQDDPIWPVVAEGKPVDEYHTCTGIGDAAAIQNVLLTANLPVSFVWVPLYSACHLMIVSINRHWRQTHPDLTSEQLTKKVGDVIHQTRMSIKLPRIVVLDDDVDPADTESLLWALATRIHPERKRYFYESAIFPWLNCYSEEERHNRKGKRVIIDALLPENHGAISSFDYAYPDDIKQRVLMHWETDFSHD
# Test system: 3-methylcrotonic acid
# Format: biochemical, Yersinia frederiksenii
# Parameters: key: “+” representing a low increase in activity; “++++” representing a high increase in activity
row,Molecule,Activity relative to WT
1,B1,++++
2,B2,++++
3,B3,++++
4,B4,++++
5,B5,+
6,B6,++++
7,B7,++++
8,B8,++++
9,B9,++++
10,B10,++++
